Measurements reported in patent US20160108087A1 (ROYAL INSTITUTION FOR THE ADVANCEMENT OF LEARNING MCGILL …, published 2016).

B1: 14-3-3ε protein (mouse, endogenous in MA-10 mouse Leydig tumor cells) (other, UniProt P62259 1-255, looked up)
chain: MDDREDLVYQAKLAEQAERYDEMVESMKKVAGMDVELTVEERNLLSVAYKNVIGARRASWRIISSIEQKEENKGGEDKLKMIREYRQMVETELKLICCDILDVLDKHLIPAANTGESKVFYYKMKGDYHRYLAEFATGNDRKEAAENSLVAYKAASDIAMTELPPTHPIRLGLALNFSVFYYEILNSPDRACRLAKAAFDDAIAELDTLSEESYKDSTLIMQLLRDNLTLWTSDMQGDGEEQNKEALQDVEDENQ
notes: whole, on cells; Endogenous intracellular protein, detected in fixed cells (Duolink) or cell lysates (co-IP); also called YWHAE gene product; mitochondrial import stimulating factor
B2: 14-3-3ε protein (rat, endogenous in testes sections of Sprague-Dawley rats) (other, UniProt P62260 1-255, looked up)
chain: MDDREDLVYQAKLAEQAERYDEMVESMKKVAGMDVELTVEERNLLSVAYKNVIGARRASWRIISSIEQKEENKGGEDKLKMIREYRQMVETELKLICCDILDVLDKHLIPAANTGESKVFYYKMKGDYHRYLAEFATGNDRKEAAENSLVAYKAASDIAMTELPPTHPIRLGLALNFSVFYYEILNSPDRACRLAKAAFDDAIAELDTLSEESYKDSTLIMQLLRDNLTLWTSDMQGDGEEQNKEALQDVEDENQ
notes: whole, on cells; Endogenous protein in tissue sections
B3: 14-3-3ε protein (human, endogenous in NCL-H295R adrenocortical cells) (other, UniProt P62258 1-255, looked up)
chain: MDDREDLVYQAKLAEQAERYDEMVESMKKVAGMDVELTVEERNLLSVAYKNVIGARRASWRIISSIEQKEENKGGEDKLKMIREYRQMVETELKLICCDILDVLDKHLIPAANTGESKVFYYKMKGDYHRYLAEFATGNDRKEAAENSLVAYKAASDIAMTELPPTHPIRLGLALNFSVFYYEILNSPDRACRLAKAAFDDAIAELDTLSEESYKDSTLIMQLLRDNLTLWTSDMQGDGEEQNKEALQDVEDENQ
notes: whole, on cells; Endogenous protein
B4: TAT-VDAC1 fusion peptide S167 (TVS167) (peptide)
peptide: YGRKKRRQRRRGSKSRVTQSNFAVG
notes: A FAM-labelled form was used only to show cell penetration; also called TAT-VDAC1 Ser167; TV167

Tests used:
[1] = biological target: T1, translocator protein (TSPO), mouse, endogenous in MA-10 cells (mouse, UniProt P50637 1-169); assay: Duolink in cell IP in MA-10 cells, signal/cell ratio, with TVS167 and 8-Br-cAMP (120 min)
T1 construct: whole, on cells; Endogenous outer mitochondrial membrane protein
T1 sequence (P50637 whole entry): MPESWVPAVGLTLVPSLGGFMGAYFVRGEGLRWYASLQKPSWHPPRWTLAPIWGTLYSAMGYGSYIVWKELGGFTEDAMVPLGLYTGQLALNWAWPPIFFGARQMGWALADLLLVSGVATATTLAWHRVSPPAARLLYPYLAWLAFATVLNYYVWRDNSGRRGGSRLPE

[2] = biological target: T2, VDAC1 protein (mouse, endogenous in MA-10 cells) (mouse, UniProt Q60932 14-296); assay: Duolink in cell IP in MA-10 cells (figure legend)
T2 construct: Endogenous protein of the outer mitochondrial membrane in MA-10 cells; also called voltage-dependent anion-selective channel protein 1; mVDAC1
T2 sequence (Q60932 14-296): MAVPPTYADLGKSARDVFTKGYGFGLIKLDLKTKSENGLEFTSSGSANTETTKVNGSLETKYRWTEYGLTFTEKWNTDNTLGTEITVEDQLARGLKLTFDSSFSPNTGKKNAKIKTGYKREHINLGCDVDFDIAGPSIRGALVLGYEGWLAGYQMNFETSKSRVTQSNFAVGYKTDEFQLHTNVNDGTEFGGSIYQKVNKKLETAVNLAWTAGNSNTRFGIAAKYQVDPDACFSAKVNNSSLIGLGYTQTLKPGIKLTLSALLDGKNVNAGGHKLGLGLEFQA

[3] = biological target: T3, VDAC1 protein (rat, endogenous in testes sections of Sprague-Dawley rats) (rat, UniProt Q9Z2L0 1-283); assay: Duolink assay on rat testes sections (figure legend)
T3 construct: Endogenous protein in tissue sections
T3 sequence (Q9Z2L0 whole entry): as the sequence (Q60932 14-296) above

[4] = biological target: T4, VDAC1 protein (human, endogenous in NCL-H295R adrenocortical cells) (human, UniProt P21796 2-283); assay: Duolink assay in human adrenocortical cell line (figure legend)
T4 construct: Endogenous protein
T4 sequence (P21796 2-283 limits assumed, stated change not applied): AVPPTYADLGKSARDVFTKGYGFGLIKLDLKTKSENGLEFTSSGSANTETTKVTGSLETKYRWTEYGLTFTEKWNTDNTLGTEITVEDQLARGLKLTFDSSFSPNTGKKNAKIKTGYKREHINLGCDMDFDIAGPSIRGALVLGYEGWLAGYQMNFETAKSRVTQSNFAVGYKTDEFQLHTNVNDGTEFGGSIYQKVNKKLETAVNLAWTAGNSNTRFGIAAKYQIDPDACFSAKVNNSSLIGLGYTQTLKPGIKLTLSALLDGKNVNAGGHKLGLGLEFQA

[5] = biological target: B1; assay: Duolink in cell IP in MA-10 cells, competition with endogenous VDAC1, 250 nM peptide

Binder	binding result [5]	also measured
B1	–	fold increase of interactions in the presence of TVS167 against untreated control [1]: 1.6 fold; binding result [2]: binds
B2	–	binding result [3]: binds
B3	–	binding result [4]: binds
B4	binds	–
YGRKKRRQRRRGSKSRVTQGNFAVG (also called TVS167G) [TAT-VDAC1 Gly167 (TVG167)]	binds	–
YGRKKRRQRRRGKLDLKTKSENGLE (also called TAT-VDAC1 Ser35) [TAT-VDAC1 fusion peptide S35 (TVS35)]	binds	–
YGRKKRRQRRRGKLDLKTKGENGLE (also called TVS35G) [TAT-VDAC1 Gly35 (TVG35)]	binds	–
